The values that follow come from publication PMC4392246, “Structure of a BAG6 (Bcl-2-associated Athanogene 6)-Ubl4a (Ubiquitin-like Protein 4a) Complex Reveals a Novel Binding Interface That Functions in Tail-anchored Protein Biogenesis*” (The Journal of Biological Chemistry, 2015).

Experiment [1] addresses T1, full-length Ubl4a H106E mutant, recombinant (Homo sapiens, UniProt P11441 1-157, H106E).
T1 construct: Ubl4a, Homo sapiens, 157 amino acids, with H106E; also called H106E Ubl4a; source: recombinant
T1 sequence (looked up): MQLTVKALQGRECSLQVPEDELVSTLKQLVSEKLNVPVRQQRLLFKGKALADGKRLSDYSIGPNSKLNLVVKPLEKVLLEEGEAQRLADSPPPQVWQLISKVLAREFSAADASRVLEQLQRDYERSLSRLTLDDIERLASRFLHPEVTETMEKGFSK
Description: SPR; BAGS domain (residues 1048-1123) immobilised on a CM5 chip by amine coupling; wild-type and mutant Ubl4a as analytes; 298 K; HBS-P (10 mM HEPES, 150 mM NaCl, 0.05% Surfactant P20, pH 7.2); 30 μl/min; two-state reaction model, overall dissociation constant. Particulars: both partners purified. For orientation: Surface plasmon resonance follows binding to a sensor surface in real time, without labels.

The target in experiment [2] is T2, full-length Ubl4a (residues 1–157), recombinant (Homo sapiens, UniProt P11441 1-157).
T2 construct: Ubl4a, Homo sapiens, residues 1-157; also called Ubl4a(1–157); full-length Ubl4a wild type; source: recombinant
T2 sequence (looked up): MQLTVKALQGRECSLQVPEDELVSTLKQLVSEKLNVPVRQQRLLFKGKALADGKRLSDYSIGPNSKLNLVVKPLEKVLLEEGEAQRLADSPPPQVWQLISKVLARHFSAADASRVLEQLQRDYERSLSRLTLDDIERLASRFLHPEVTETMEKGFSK
The experiment is described as above. Particulars: both partners purified.

B1: BAG6 BAGS domain (residues 1048–1123) (domain or fragment, human, UniProt P46379-2 1048-1123, looked up)
chain: MQGEGPQLLLSEAVSRAAKAAGARPLTSPESLSRDLEAPEVQESYRQQLRSDIQKRLQEDPNYSPQRFPNAQRAFA
notes: BAG6, C-terminal BAGS domain, residues 1048-1123; printed length of BAG6 1,126 residues; Removal of GST is told for the crystallised complex; also called BAG6(1048–1123)
The term Kd denotes the equilibrium constant for the complex coming apart. Take B1: the Kd in experiment [1] was 1600 ± 80 nM; in experiment [2], 2.2 ± 0.5 nM.
